Biological target: DAO-6H (recombinant D-amino acid oxidase with C-terminal (His)6) (UniProt P14920)
Sequence (P14920 whole entry): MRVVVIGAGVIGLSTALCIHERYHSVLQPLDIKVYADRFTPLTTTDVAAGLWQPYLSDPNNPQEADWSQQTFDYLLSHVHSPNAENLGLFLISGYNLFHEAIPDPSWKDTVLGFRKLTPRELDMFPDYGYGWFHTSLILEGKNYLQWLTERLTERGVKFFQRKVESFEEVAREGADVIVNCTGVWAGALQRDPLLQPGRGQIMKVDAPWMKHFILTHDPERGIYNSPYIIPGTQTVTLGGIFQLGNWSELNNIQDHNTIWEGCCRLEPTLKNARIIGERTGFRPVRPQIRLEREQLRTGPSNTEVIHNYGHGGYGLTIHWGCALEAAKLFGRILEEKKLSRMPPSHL

initial velocity (V0) of DAO activity (400 nM DAO-6H, 40 mM D-alanine, 25 °C) with 0, 1, 3, 10 μM G72; V0 at 10 μM, fold of DAO alone in parentheses (mol hydrogen peroxide produced/min/g DAO): 8.06
B1: G72-6H (recombinant full-length G72 with C-terminal (His)6, refolded) (natural protein)
chain: MLEKLMGADSLQLFRSRYTLGKIYFIGFQRSILLSKSENSLNSIAKETEEGRETVTRKEGWKRRHEDGYLEMAQRHLQRSLCPWVSYLPQPYAELEEVSSHVGKVFMARNYEFLAYEASKDRRQPLERMWTCNYNQQKDQSCNHKEITSTKAE
